Paper PMC10090177

How the values were obtained:
Assay in all cases: cryo-EM structure; purified SGIV virions; icosahedral capsid, block-based reconstruction at 3.5 Å; atomic model of one asymmetric unit
[1] = biological target: Singapore grouper iridovirus penton protein VP14 (Singapore grouper iridovirus (SGIV))
[2] = biological target: Singapore grouper iridovirus major capsid protein VP72 (Singapore grouper iridovirus (SGIV))
[3] = biological target: Singapore grouper iridovirus zip protein VP38 (P1) (Singapore grouper iridovirus (SGIV))

Work on “Singapore grouper iridovirus penton protein VP14 (natural protein)” yielded a stoichiometry N [1] of 5.
Work on “Singapore grouper iridovirus major capsid protein VP72 (natural protein)” yielded a stoichiometry N [2] of 3.
For “Singapore grouper iridovirus zip protein VP38 (P1) (natural protein)”, the stoichiometry N [3] was 2.
